Biological target: hamster JUNO (hamster)
Assay: live imaging-based adhesion molecule (LIAM) assay; BHK cells, non-inducible expression (cytomegalovirus promoter); separately transfected cells mixed in equal amounts 4 h after transfection, incubated 20 h, imaged every 6 min for 12 h at 40x, 37 °C, 5% CO2; read-outs: accumulation at the cell interface and translocation to the opposite cell, % of contacting cell pairs

B1: mouse IZUMO1-Venus (natural protein)
chain: CIKCDQFVTDALKTFENTYLNDHLPHDIHKNVMRMVNHEVSSFGVVTSAEDSYLGAVDENTLEQATWSFLKDLKRITDSDLKGELFIKELLWMLRHQKDIFNNLARQFQKEVLCPNKCGVMSQTLIWCLKCEKQLHICRKSLDCGERHIEVHRSEDLVLDCLLSWHRASKGLTDYSFYRVWENSSETLIAKGKEPYLTKSMVGPEDAGNYRCVLDTINQGHATVIRYDVTVLPPKHSEENQPPNIITQEEHETPVHVTPQTPPGQEPESELYPELHPELYPELIPTVAQNPEKKMKTRLLILLTLGFVVLVASIIISVLHFRKVSAKLKNASDEVKPTASGSKSDQSLSQQMGLKKASQADFNSDYSGDKSEATEN
In the case of B1, the IZUMO1 accumulation (% of contacting cell pairs) is reported as 78%.

Reference: paper PMC9187738
